Measurements: article PMC10350915, “Development of a New Class of CXCR4-Targeting Radioligands Based on the Endogenous Antagonist EPI-X4 for Oncological Applications” (Journal of Medicinal Chemistry, 2023)
Square brackets hold non-standard residues; d marks the D form. Side chains are listed from the residue outwards. Ends that are not written are not given here. Peptide text beside a SMILES is read from it. * marks the point of attachment. DOTA = O=C(O)CN1CCN(CC(=O)O)CCN(CC(=O)*)CCN(CC(=O)O)CC1; dTyr(3-I) = N[C@H](Cc1ccc(O)c(I)c1)C(=O)O; 2Nal = N[C@@H](Cc1ccc2ccccc2c1)C(=O)O; Palmitoyl = CCCCCCCCCCCCCCCC(=O)*; dNMeOrn = CN[C@H](CCCN)C(=O)O; 4Amb = NCc1ccc(C(=O)O)cc1

Experiments:
[1] = cited from earlier work
[2] = in vivo; cited from earlier work
[3] = type: physicochemical; conditions: pH 7.4
Experimental: In a prelubricated eppendorf tube, a presaturated mixture of 500 μL of octanol and 500 μL of phosphate-buffered saline (PBS) were added. 1 pmol of the ^177Lu-labeled ligand was pipetted into this mixture, vortexed for 30 min, and then centrifuged at 3000 rpm for 10 min to achieve phase separation. Aliquots of 100 μL were removed from the octanol and from the PBS phase and the activity measured in a γ-counter. The distribution coefficient was calculated as the average log ratio value of the radioactivity in the organic fraction and PBS fraction.

[4] = type: in vitro ADME; conditions: human, plasma, plasma protein binding (PPB)
Experimental: (§1) Figure 3 Stability of the ^177Lu ligands in human plasma at 37 °C, expressed as % of intact radioligand over time, assessed by radio-HPLC. The % of plasma protein binding (PPB) after 60 min incubation is provided in parenthesis and it is expressed as the % of radioligand in the protein fraction (pellet) versus the total activity in the plasma. TEXT PRINTED IN THE PICTURE: ^177Lu-1: PPB: 35% | ^177Lu-2: PPB: 22% | ^177Lu-5: PPB: 42% | ^177Lu-6: PPB: 38% | ^177Lu-7: PPB: 39% | ^177Lu-9: PPB: 37%
For the determination of plasma protein binding (PPB), 100 μL from the plasma incubated with the ^177Lu ligand was removed and measured in a γ-counter (total radioactivity). Protein precipitation and separation followed, as described above. The supernatant and the protein pellet were then measured in a γ-counter. The percentage of plasma protein binding was calculated as the ratio between the protein-bound radioactivity and the total radioactivity in the plasma.

[5] = type: in vitro ADME, human
Experimental: Representative radiochromatograms are provided in Figure S25 for ^177Lu-1, ^177Lu-2, and ^177Lu-7. This included ^177Lu-9 despite its fatty acid chain.
as §1
To 1 mL of fresh human plasma, previously equilibrated at 37 °C, 500 pmol (8–10 MBq) of each ^177Lu-labeled ligand was added. The mixture was incubated at 37 °C for different time points (0, 15, 30, 60, and 120 min). At each time point, a 100 μL aliquot was removed and treated with 1.5 excess (v/v) of acetonitrile, to precipitate plasma proteins, followed by centrifugation for 5 min at 3500 rpm. The supernatant was collected and the process of protein precipitation was repeated. Afterward, 100 μL from the supernatant was taken, diluted with water at a ratio of 1:10 (v/v), and injected into radio-HPLC. The radioligand (in)stability was assessed by quantifying the percentage of intact radioligand over time.

Ghost-CXCR4 cells = test: Cellular uptake and distribution in Ghost-CXCR4 cells; type: cell-based, human; conditions: 37 °C, 60 min
Experimental: Figure 4 In vitro assessment in Ghost-CXCR4 cells at 37 °C. […] Each experiment was performed in triplicate. Results are means ± SD [% of applied activity] from a minimum of two separate experiments. […] Cellular uptake was interrupted at 15, 30, and 60 min by removing the medium and washing twice with ice-cold PBS. The cell surface-bound radioligand was obtained by washing cells twice with ice-cold glycine buffer (pH 2.8) followed by a collection of the internalized fraction after treating the cells with 1 M sodium hydroxide (NaOH). The activity in each fraction was measured in a γ-counter. […] The results were expressed as a percentage of the applied radioactivity after subtracting the nonspecific uptake.

Jurkat xenografts = type: in vivo, mouse; conditions: 1 h p.i., SPECT/CT or PET/CT
Experimental: The ability of the ^177Lu ligands to target CXCR4 in vivo was assessed by SPECT/CT imaging in Jurkat xenografts. […] 1 h after injection, the remaining amount of radioligand in the body (and vice versa, the washout) was quantified by measuring the total body activity (mouse) in a dose calibrator. The % of the radioligand remaining in the body after 1 h is reported in Figure 6A as % of the remaining activity in reference to the injected activity (100%).
Figure 6 SPECT/CT images as maximum intensity projections (MIPs) of Jurkat tumor-bearing mice at 1 h p.i. of ^177Lu-labeled ligands (200 pmol, ∼15 MBq). […] (B) Same SPECT/CT images of ^177Lu-1, ^177Lu-2, ^177Lu-5, and ^177Lu-6, adapted in a lower scale. T: tumor, L: liver, and K: kidneys. […] TEXT PRINTED IN THE PICTURE: (A) ^177Lu-1: Remaining Activity (% injected): 6 % | (A) ^177Lu-2: Remaining Activity (% injected): 7 % | (A) ^177Lu-5: Remaining Activity (% injected): 7 % | (A) ^177Lu-6: Remaining Activity (% injected): 8 % | (A) ^177Lu-7: Remaining Activity (% injected): 55 % | (A) ^177Lu-9: Remaining Activity (% injected): 94 %
The experimental protocol involving animals was approved by the Veterinary Office (Department of Health) of the Cantonal Basel-Stadt (Approval No. 30515) in accordance with the Swiss regulations for animal treatment. Female athymic nude-Foxn1^nu/Foxn1^+ mice (Envigo, The Netherlands), 4–6 weeks old, were injected subcutaneously with 10^7 Jurkat cells in a 200 μL (1:1) mixture of PBS and Matrigel (CorningMatrigelMembrane matrix, Fischer Scientific, Germany) on the right shoulder. The tumors were allowed to grow for 3–4 weeks before commencement of the experiments.
Nude mice bearing Jurkat xenografts were intravenously injected via the tail vein with ∼15 MBq (200 pmol) of the ^177Lu ligands and 8 MBq (200 pmol) of ^68Ga-7 were euthanized 1 h post injection (p.i.). The radioactivity in the syringe before and after injection was measured followed by measuring the amount of radioactivity remaining in the sacrificed mice. […]

[6] = Shelf-life of 177Lu-labeled ligands at room temperature (radio-HPLC); type: physicochemical
Experimental: The shelf-life of each ^177Lu-labeled ligand was monitored at room temperature up to 24 h after radiolabeling.
The shelf-lives of ^177Lu-labeled ligands were assessed at room temperature (RT) in the buffer used for labeling, as described above. For the analysis, 5 μL was withdrawn at desired time points (0, 1, 2, 4, and 24 h) from the stock solution and mixed with 50 μL of the Ca-DTPA solution. 20 μL of this mixture was withdrawn and injected in RP-HPLC.

[7] = cited from earlier work; remark: listed apart in the source

CC[C@H](C)[C@H](N)C(=O)N[C@@H](CC(C)C)C(=O)N[C@@H](CCCNC(=N)N)C(=O)N[C@@H](Cc1c[nH]c2ccccc12)C(=O)N[C@@H](CO)C(=O)N[C@@H](CCCNC(=N)N)C(=O)N[C@@H](CCCCN)C(=O)N[C@@H](CC(C)C)C(=O)N1CCC[C@H]1C(=O)N[C@@H](CS)C(=O)N[C@H](C(=O)N[C@@H](CO)C(=O)O)C(C)C [JM#21, I^1LRWSRK^7LPCVS^12]
half-life in human plasma [1]: ~6 min

CN1C(=O)[C@@H](Cc2ccc(O)cc2)NC(=O)CNC(=O)[C@H](Cc2ccc3ccccc3c2)NC(=O)[C@H](CCCN=C(N)N)NC(=O)[C@H]1CCCNC(=O)c1ccc(CNC(=O)CN2CCN(CC(=O)[O-])CCN(CC(=O)[O-])CCN(CC(=O)[O-])CC2)cc1.[68Ga+3] [^68Ga-Pentixafor, cyclo(D-Tyr^1-D-[NMe]Orn^2(AMBS-(^68Ga-DOTA))-Arg^3-Nal^4-Gly^5)] (cyclo([2Nal]G[dY][dNMeOrn]([4Amb-DOTA])R))
activity in the blood [2]: 1.08 ± 0.27 %IA/g
uptake in the kidneys [2]: 3.06 ± 0.63 %IA/g

CC[C@H](C)[C@H](N)C(=O)N[C@@H](CC(C)C)C(=O)N[C@@H](CCCNC(=N)N)C(=O)N[C@@H](Cc1c[nH]c2ccccc12)C(=O)N[C@@H](CO)C(=O)N[C@@H](CCCNC(=N)N)C(=O)N[C@@H](CCCCN)C(=O)N[C@@H](CC(C)C)C(=O)N1CCC[C@H]1C(=O)N[C@@H](CO)C(=O)N[C@H](C(=O)N[C@@H](CO)C(=O)N[C@@H](CCCCNC(=O)CN1CCN(CC(=O)O)CCN(CC(=O)O)CCN(CC(=O)O)CC1)C(=O)O)C(C)C [^177Lu-2, metal not drawn] (H-ILRWSRKLPSVSK(DOTA)-OH; N-terminus and C-terminus assumed)
logD [3]: -3.23 ± 0.23
fraction unbound at 60 min [4]: 0.78
time to complete degradation in human plasma [5]: 60 min

CCCCCCCCCCCCCCCC(=O)N[C@@H](CCC(=O)O)C(=O)NCCCC[C@H](NC(=O)[C@H](CCCNC(=N)N)NC(=O)[C@H](CO)NC(=O)[C@H](Cc1c[nH]c2ccccc12)NC(=O)[C@H](CCCNC(=N)N)NC(=O)[C@H](CC(C)C)NC(=O)[C@H](N)CC(C)C)C(=O)N[C@@H](CCCCNC(=O)CN1CCN(CC(=O)O)CCN(CC(=O)O)CCN(CC(=O)O)CC1)C(N)=O [^177Lu-9, metal not drawn] (H-[dL]LRWSRK([Glu-Palmitoyl])K(DOTA)-NH2; N-terminus assumed)
logD [3]: 0.29 ± 0.1
cellular uptake (% of the applied activity) (Ghost-CXCR4 cells): 3.25 ± 0.06%
subcellular distribution (membrane-bound vs internalized) (Ghost-CXCR4 cells): almost entirely internalized
fraction unbound at 60 min [4]: 0.63
metabolic stability in plasma (in words) ([5]; human, plasma): high metabolic stability in plasma up to 4 h
visualization of CXCR4-expressing tumor xenograft by imaging (Jurkat xenografts): failed to visualize CXCR4-expressing tumors
radiochemical purity (%) ([6]; 0 h after radiolabeling): 96 ± 3%
radiochemical purity (%) ([6]; 1 h after radiolabeling): 96 ± 2%
radiochemical purity (%) ([6]; 2 h after radiolabeling): 94 ± 1%
radiochemical purity (%) ([6]; 4 h after radiolabeling): 93 ± 1%

CN1C(=O)[C@@H](Cc2ccc(O)c(I)c2)NC(=O)CNC(=O)[C@H](Cc2ccc3ccccc3c2)NC(=O)[C@H](CCCN=C(N)N)NC(=O)[C@H]1CCCNC(=O)c1ccc(CNC(=O)CN2CCN(CC(=O)O)CCN(CC(=O)O)CCN(CC(=O)O)CC2)cc1.[177Lu] [^177Lu-Pentixather, cyclo(3-iodo-D-Tyr^1-D-[NMe]Orn^2(AMBS-(^177Lu-DOTA)-Arg^3-Nal^4-Gly^5)] (cyclo([2Nal]G[dTyr(3-I)][dNMeOrn]([4Amb-DOTA])R))
plasma protein binding (PPB) [7]: 97%

LVRYTKKVPQVSTPTL [EPI-X4]
half-life in human plasma [1]: 17 min
